Tests used:
[1] = target: Taxol-stabilised microtubules (TIRF) (pig) (UniProt P02550); assay: TIRF microscopy of single particles on microtubules
CENP-OPQU (human) = CENP-OPQU (human) (UniProt Q9BU64); assay: AUC
Sequence of CENP-OPQU (human) (Q9BU64 whole entry, chain 1 of 4): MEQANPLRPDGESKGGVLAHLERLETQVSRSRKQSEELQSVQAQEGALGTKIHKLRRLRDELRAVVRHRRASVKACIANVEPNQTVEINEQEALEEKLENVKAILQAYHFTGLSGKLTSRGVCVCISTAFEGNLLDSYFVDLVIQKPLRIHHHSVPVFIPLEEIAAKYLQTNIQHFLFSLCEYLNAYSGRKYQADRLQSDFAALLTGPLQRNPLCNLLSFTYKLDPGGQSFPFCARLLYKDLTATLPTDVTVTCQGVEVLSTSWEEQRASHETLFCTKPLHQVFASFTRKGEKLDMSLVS
Sequence of CENP-OPQU (human) (Q6IPU0 whole entry, chain 2 of 4, further chain): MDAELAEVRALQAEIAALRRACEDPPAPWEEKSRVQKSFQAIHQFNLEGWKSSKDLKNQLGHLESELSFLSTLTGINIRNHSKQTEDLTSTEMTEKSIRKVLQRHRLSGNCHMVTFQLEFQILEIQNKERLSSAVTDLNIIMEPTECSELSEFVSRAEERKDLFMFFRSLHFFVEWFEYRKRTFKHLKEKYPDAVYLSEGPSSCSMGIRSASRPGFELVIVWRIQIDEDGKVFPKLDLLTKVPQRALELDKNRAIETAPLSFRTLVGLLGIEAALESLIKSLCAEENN
Sequence of CENP-OPQU (human) (Q7L2Z9 whole entry, chain 3 of 4, further chain): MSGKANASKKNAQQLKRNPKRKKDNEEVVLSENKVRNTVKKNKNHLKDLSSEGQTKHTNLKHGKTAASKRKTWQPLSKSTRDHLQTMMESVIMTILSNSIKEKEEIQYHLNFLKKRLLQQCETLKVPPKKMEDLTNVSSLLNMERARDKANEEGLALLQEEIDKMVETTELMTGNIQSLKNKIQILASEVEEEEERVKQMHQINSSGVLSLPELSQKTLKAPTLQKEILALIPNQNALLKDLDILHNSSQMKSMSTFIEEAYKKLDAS
Sequence of CENP-OPQU (human) (Q71F23 whole entry, chain 4 of 4, further chain): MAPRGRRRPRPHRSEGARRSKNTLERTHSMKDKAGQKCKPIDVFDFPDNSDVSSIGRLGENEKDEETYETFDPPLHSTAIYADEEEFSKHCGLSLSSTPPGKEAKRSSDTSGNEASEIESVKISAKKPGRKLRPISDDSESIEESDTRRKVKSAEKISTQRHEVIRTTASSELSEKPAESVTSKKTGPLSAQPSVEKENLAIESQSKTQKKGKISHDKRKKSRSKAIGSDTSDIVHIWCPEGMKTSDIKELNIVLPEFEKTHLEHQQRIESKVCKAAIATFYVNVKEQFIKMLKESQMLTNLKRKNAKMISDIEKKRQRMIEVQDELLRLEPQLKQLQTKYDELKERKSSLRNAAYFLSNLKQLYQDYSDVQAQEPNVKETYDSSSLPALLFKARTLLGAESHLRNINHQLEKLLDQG

Sequence of CENP-OPQU (Q9BU64 whole entry): as the sequence (Q9BU64 whole entry, chain 1 of 4) above
Sequence of CENP-OPQU (Q6IPU0 whole entry): as the sequence (Q6IPU0 whole entry, chain 2 of 4, further chain) above
Sequence of CENP-OPQU (Q7L2Z9 whole entry): as the sequence (Q7L2Z9 whole entry, chain 3 of 4, further chain) above
Sequence of CENP-OPQU (Q71F23 whole entry): as the sequence (Q71F23 whole entry, chain 4 of 4, further chain) above

For “CENP-OPQU (from UniProt Q9BU64 1-300; Q6IPU0 1-288; Q7L2Z9 1-268; Q71F23 1-418) (complex)”, which mean time associated [1] is on record?
Its mean time associated is 131 s.

For “CENP-R (co-expressed or co-lysed with CENP-OPQU subunits) (from UniProt Q13352 1-177) (natural protein)”, which stoichiometry N (CENP-OPQU (human)) is on record?
Its stoichiometry N is 1.

— paper PMC6162344
